We go through one molecule from patent US20110008406A1.

Experiment [1] has as its target T1, silk fibroin, sericin-depleted, from degummed Bombyx mori silk (dissolved in 9.3 M LiBr, dialysed, then gelled or precipitated) (Bombyx mori), P05790. Description: HPLC and dry mass of silk precipitates, over all formulations.
In experiment [2] the target is T1, silk fibroin, sericin-depleted, from …. As to the kind of experiment: HPLC of 23RGD extracted from the final rinsed 23RGD-enhanced silk gel.
For experiment [3] the target is unchanged. Description: HPLC of 23RGD extracted from lyophilized silk precipitate, formulation RHI.
The target is the same in experiment [4]. As to the kind of experiment: HPLC of 23RGD extracted from lyophilized silk precipitate, formulation AVHI.
Experiment [5] has the same target. Description: HPLC of 23RGD extracted from lyophilized silk precipitate, formulation AVLO.
For experiment [6] the target is unchanged. Description: HPLC of 23RGD extracted from lyophilized silk precipitate, formulation BASE.
The target is the same in experiment [7]. As to the kind of experiment: HPLC of 23RGD extracted from lyophilized silk precipitate, formulation SCLO.
For experiment [8] the target is unchanged. Description: HPLC of 23RGD extracted from lyophilized silk precipitate, formulation SCVLO.
Experiment [9] shares this target. Description: HPLC of 23RGD extracted from silk precipitates; plateau over the formulations.
For experiment [10] the target is unchanged. Description: HPLC of 23RGD extracted from lyophilized silk precipitate, formulation 0.6S 3R 10:1.
Experiment [11] shares this target. As to the kind of experiment: HPLC of 23RGD extracted from lyophilized silk precipitate, formulation printed as RLO.
Experiment [12] has the same target. As to the kind of experiment: HPLC of 23RGD extracted from lyophilized silk precipitate, formulation printed as RMED.
The target is the same in experiment [13]. As to the kind of experiment: HPLC of 23RGD extracted from silk precipitate, formulation AVLO, against the calculated molar ratio.
The target is the same in experiment [14]. Description: HPLC of 23RGD extracted from silk precipitate, formulation BASE, against the calculated molar ratio.
For experiment [15] the target is unchanged. As to the kind of experiment: HPLC of 23RGD extracted from silk precipitate, formulation ECLO, against the calculated molar ratio.
The target is the same in experiment [16]. As to the kind of experiment: HPLC of 23RGD extracted from silk precipitate, formulation SCLO, against the calculated molar ratio.
Experiment [17] shares this target. As to the kind of experiment: HPLC of 23RGD extracted from silk precipitate, formulation printed as RMED, against the calculated molar ratio.

GRGDIPASSKGGGGSRLLLLLLR (modifications not checked) [23RGD peptide (amphiphilic peptide: RGD motif, spacer region, leucine tail; 23 amino acids)] registered a percent of 23RGD precipitated with silk in experiment [1] of 5 to 30%. For the same molecule, the 23RGD:silk molar ratio (bound) (mol 23RGD per mol silk) in experiment [2] was found to be 3.35. Moreover, the 23RGD:silk ratio (bound) (mol 23RGD per mol silk) amounted to 10.7 in [3]; 10.5 in [4]; 5.2 in experiment [5]; 8.7 in experiment [6]; 9.9 in experiment [7]; 11 in [8]. Also, the figures for the 23RGD:silk ratio (bound) (mol 23RGD per mol silk) in experiment [10], in experiment [11] and in [12] were 10, 1.1 and 6.95, respectively. The apparent saturation, RGD molecules per molecule of silk (mol 23RGD per mol silk) in experiment [9] came out at 10. The bound RGD, fold of the calculated (expected) amount was 2 fold in [13]; 2 fold in experiment [14]; 1.5 fold in experiment [15]; 2 fold in [16]; 2 fold in experiment [17].
